T1: human CD3εγ-Fc heterodimer (human)
T1 construct: also called human CD3εγ recombinant protein; human CD3εγ protein
T1 chain 1: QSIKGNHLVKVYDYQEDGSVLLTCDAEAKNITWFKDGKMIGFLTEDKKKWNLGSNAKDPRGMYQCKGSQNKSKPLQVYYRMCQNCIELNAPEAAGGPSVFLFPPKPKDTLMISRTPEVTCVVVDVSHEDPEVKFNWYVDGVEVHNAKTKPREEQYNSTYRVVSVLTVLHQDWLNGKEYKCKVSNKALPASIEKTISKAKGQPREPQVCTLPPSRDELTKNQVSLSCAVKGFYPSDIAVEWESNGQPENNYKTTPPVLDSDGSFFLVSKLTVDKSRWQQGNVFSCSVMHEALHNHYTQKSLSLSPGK
T1 chain 2: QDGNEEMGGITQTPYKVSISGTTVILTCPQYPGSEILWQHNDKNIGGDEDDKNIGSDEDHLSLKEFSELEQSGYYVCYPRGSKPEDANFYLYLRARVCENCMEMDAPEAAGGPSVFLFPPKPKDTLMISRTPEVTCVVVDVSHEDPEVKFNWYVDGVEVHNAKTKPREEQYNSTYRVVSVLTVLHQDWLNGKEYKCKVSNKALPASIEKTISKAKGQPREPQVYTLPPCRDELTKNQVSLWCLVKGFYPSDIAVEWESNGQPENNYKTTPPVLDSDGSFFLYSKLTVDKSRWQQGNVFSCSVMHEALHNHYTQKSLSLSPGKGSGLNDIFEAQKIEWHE


Legend:
[1] = biological target: T1, human CD3εγ-Fc heterodimer; assay: SPR (Biacore T200), antigen amine-coupled on CM5 chip, antibody as analyte, 1:1 model
Method: 10 μg/mL human or cynomolgus monkey BCMA or CD3εγ recombinant antigen was bound to a CM5 chip (GE healthcare) by amino conjugating, while the amount of antigen bound was controlled to approximately 200 RU. After baseline plateau, gradient diluted antibodies (7 gradients of 2-fold dilutions from 10 μg/mL) were flowed through the chip at a flow rate of 30 μL/min for a binding time of 350 seconds and a dissociation time of 600 seconds. Kinetic constants were fitted using Biacore T200 evaluation software with a 1:1 binding model.

[2] = biological target: T2, human CD3 on T cells (Jurkat cells; human peripheral blood CD4+ and CD8+ T-cells) (human, UniProt P07766 23-207); assay: flow cytometry on human peripheral blood CD4+ T-cells
T2 construct: whole, on cells; also called CD4T; CD4 + T
Method: Fresh human peripheral blood was taken and PBMC was isolated by Ficoll. Paque Plu (GE, 17-1440-03). PBMC was adjusted to 5×10⁵ cells/mL with 4% calf serum (Hyclone, SH30626.06), 100 μL/well was added to a 96-well U-plate, the supernatant was centrifuged off and 100 μL of gradient diluted antibody (with starting concentration of 1800 nM, 3-fold dilution, 10 gradients) was added to each well and incubated for 60 min at 4° C. 50 μL/well of Alexa Fluro647 labeled goat anti-human IgG Fc (1:300 dilution) was added to the secondary antibody, with ice bath for 20 min, and 50 μL/well PI added after washing once, incubated for 5 min, and flow cytometer (BD C6) was used for detection. The control antibody REGN5458 was synthesized and prepared according to US20200024356.

[3] = biological target: T3, cynomolgus monkey GPC3 on CHO stably transfected cells (cynomolgus monkey, UniProt A0A2K5VK50 24-553); assay: flow cytometry on CHO-cynomolgus monkey GPC3 stably transfected cells
T3 construct: whole, on cells; also called Cynomolgus monkey GPC3-CHO; CHO-Cynomolgus monkey GPC3
Method: (§1) CHO-human GPC3, CHO-Cynomolgus monkey GPC3 stably transfected cells or human hepatocellular carcinoma HepG2 tumor cells in logarithmic growth phase were taken. After blocking, the cells were adjusted to 5×10⁵ cells/ml, and 100 μl/well cell suspension was added to 96-well U-shaped plate and centrifuged at 300 g for 5 min. The supernatant was discarded, 100 μL of gradient diluted antibody (with a starting concentration of 1800 nM, 3-fold dilution, 10 gradients) was added to each well, and incubated at 4° C. for 60 min. 50 μL/well Alexa Fluro647 labeled goat anti-human IgG Fc (1:300 dilution) were added to the secondary antibody, incubated on ice for 20 min, added with 50 μL/well PI solution (1:300) after washing once, incubated for 5 min, and flow cytometer was used to make detection.

[4] = biological target: T2, human CD3 on T cells (Jurkat cells; …); assay: flow cytometry on peripheral blood CD8+ T-cells
Method: (§2) Fresh human or cynomolgus monkey peripheral blood was taken and PBMC was isolated by Ficoll. Paque Plus (GE, 17-1440-03). PBMC was adjusted to 5×10⁵ cells/mL with 4% calf serum (Hyclone, SH30626.06), 100 μL/well was added to a 96-well U-plate, the supernatant was centrifuged off and 100 μL of gradient diluted antibody (with starting concentration of 1800 nM, 3-fold dilution, 10 gradients) was added to each well and incubated for 60 min at 4° C. 50 μL/well Alexa Fluro647 labeled goat anti-human IgG Fc (1:300 dilution) was added to secondary antibody, with ice bath for 20 min. 50 μL/well PI was added after washing once and incubated for 5 min, and flow cytometer (BD Celesta) is used to make detection.

[5] = biological target: T4, human GPC3 on cells (CHO-human GPC3 stably transfected cells; HepG2 tumor cells) (human, UniProt P51654 25-554); assay: flow cytometry on HepG2 cells
T4 construct: whole, on cells; also called Human GPC3-CHO
Method: as §1

[6] = biological target: T4, human GPC3 on cells (CHO-human GPC3 …); assay: flow cytometry on CHO-human GPC3 stably transfected cells
Method: as §1

[7] = biological target: T2, human CD3 on T cells (Jurkat cells; …); assay: flow cytometry on peripheral blood CD4+ T-cells
Method: as §2

[8] = biological target: T2, human CD3 on T cells (Jurkat cells; …); assay: flow cytometry on Jurkat cells
Method: The cells were adjusted to 5×10^5 cells/mL with 4% calf serum, 100 μL/well was added to 96-well U-plate, 300 g was centrifuged to removed the supernatant, 100 μL/well of gradient diluted antibody (initial concentration: 1800 nM, 3-fold dilution, 10 gradients) was added and incubated at 4° C. for 60 min. 50 μL/well Alexa Fluro647-labeled goat anti-human IgG Fc (1:300 dilution) was added to the secondary antibody and incubated on ice for 20 min. 50 μL/well PI was added after washing once, incubated for 5 min, and detected with flow cytometer (BD C6).

Row | Binder | Kd [1] [nM] | EC50 [2] [nM] | EC50 [3] [nM] | EC50 [4] [nM] | EC50 [5] [nM] | EC50 [6] [nM] | EC50 [7] [nM] | EC50 [8] [nM]
1 | BCMA × CD3 κλ003 (bispecific antibody, human IgG4 S228P, kappa, lambda, also called BCMA×CD3 κλ bispecific antibody) light 1: DIVLTQSPASLAVSPGQRATITCRASKSVSTSGYSYMHWYQKKPGQPPKLLIYLASNLESGVPARFSGSGSGTDFTLTINPVEAEDTANYYCQHSRELPWTFGQGTKVEIKRTVAAPSVFIFPPSDEQLKSGTASVVCLLNNFYPREAKVQWKVDNALQSGNSQESVTEQDSKDSTYSLSSTLTLSKADYEKHKVYACEVTHQGLSSPVTKSFNRGEC heavy 1: QVQLVQSGSELKKPGASVKVSCKASGYIFTNFGMNWVREAPGQGLEWMGWINTYTGEQIYADGFTGRFVFSLDTSASTAYLQISSLKAEDTAVYFCARGEIYYGYDVGFVYWGQGTLVTVSSASTKGPSVFPLAPCSRSTSESTAALGCLVKDYFPEPVTVSWNSGALTSGVHTFPAVLQSSGLYSLSSVVTVPSSSLGTKTYTCNVDHKPSNTKVDKRVESKYGPPCPPCPAPEFEGGPSVFLFPPKPKDTLMISRTPEVTCVVVDVSQEDPEVQFNWYVDGVEVHNAKTKPREEQFNSTYRVVSVLTVLHQDWLNGKEYKCKVSNKGLASSIEKTISKAKGQPREPQVCTLPPSQEEMTKNQVSLSCAVKGFYPSDIAVEWESNGQPENNYKTTPPVLDSDGSFFLVSKLTVDKSRWQEGNVFSCSVMHEALHNHYTQKSLSLSLGK light 2: QAVVTQEPSLTVSPGGTVTLTCRSSTGAVTTSNYANWVQEKPGQAPRGLIGGTNKRAPWTPARFSGSLLGGKAALTITGAQAEDEAEYYCVLWYSNLWVFGGGTKLTVLGQPKAAPSVTLFPPSSEELQANKATLVCLISDFYPGAVTVAWKADSSPVKAGVETTTPSKQSNNKYAASSYLSLTPEQWKSHRSYSCQVTHEGSTVEKTVAPTECS heavy 2: EVQLVESGGGLVQPGGSLRLSCAASGFTFNTYAMNWVRKAPGKGLEWVGRIRSKYNNYATYYADSVKDRFTISRDDSKNSLYLQMNSLKTEDTAVYYCVRHGNFGNSYVSWFAYWGQGTLVTVSSASTKGPSVFPLAPCSRSTSESTAALGCLVKDYFPEPVTVSWNSGALTSGVHTFPAVLQSSGLYSLSSVVTVPSSSLGTKTYTCNVDHKPSNTKVDKRVESKYGPPCPPCPAPEFEGGPSVFLFPPKPKDTLMISRTPEVTCVVVDVSQEDPEVQFNWYVDGVEVHNAKTKPREEQFNSTYRVVSVLTVLHQDWLNGKEYKCKVSNKGLASSIEKTISKAKGQPREPQVYTLPPCQEEMTKNQVSLWCLVKGFYPSDIAVEWESNGQPENNYKTTPPVLDSDGSFFLYSKLTVDKSRWQEGNVFSCSVMHEALHNHYTQKSLSLSLGK | 31 | 89 | – | – | – | – | – | –
2 | GPC3 × CD3 κλ002 (bispecific antibody, human IgG4 S228P, kappa, lambda, also called GPC3×CD3 κλ bispecific antibody) light 1: DVVMTQSPLSLPVTPGEPASISCRSSQSIVHSNGNTYLEWYLKKPGQSPQLLIYKVSNRFSGVPDRFSGSGSGTDFTLKISRVEAEDVGVYFCLQVTHVPLTFGQGTKLEIKRTVAAPSVFIFPPSDEQLKSGTASVVCLLNNFYPREAKVQWKVDNALQSGNSQESVTEQDSKDSTYSLSSTLTLSKADYEKHKVYACEVTHQGLSSPVTKSFNRGEC heavy 1: QVQLVQSGAEVKKPGSSVKVSCKASGYTFADYEIHWVREAPGQGLEWMGAIHPGSGGTAYAQKFQGRVTLTADESSTTAYMELSSLRSEDTAVYYCTRYYSFAYWGQGTLVTVSSASTKGPSVFPLAPCSRSTSESTAALGCLVKDYFPEPVTVSWNSGALTSGVHTFPAVLQSSGLYSLSSVVTVPSSSLGTKTYTCNVDHKPSNTKVDKRVESKYGPPCPPCPAPEFEGGPSVFLFPPKPKDTLMISRTPEVTCVVVDVSQEDPEVQFNWYVDGVEVHNAKTKPREEQFNSTYRVVSVLTVLHQDWLNGKEYKCKVSNKGLASSIEKTISKAKGQPREPQVCTLPPSQEEMTKNQVSLSCAVKGFYPSDIAVEWESNGQPENNYKTTPPVLDSDGSFFLVSKLTVDKSRWQEGNVFSCSVMHEALHNHYTQKSLSLSLGK light 2: QAVVTQEPSLTVSPGGTVTLTCRSSTGAVTTSNYANWVQEKPGQAPRGLIGGTNKRAPWTPARFSGSLLGGKAALTITGAQAEDEAEYYCVLWYSNLWVFGGGTKLTVLGQPKAAPSVTLFPPSSEELQANKATLVCLISDFYPGAVTVAWKADSSPVKAGVETTTPSKQSNNKYAASSYLSLTPEQWKSHRSYSCQVTHEGSTVEKTVAPTECS heavy 2: EVQLVESGGGLVQPGGSLRLSCAASGFTFNTYAMNWVRKAPGKGLEWVGRIRSKYNNYATYYADSVKDRFTISRDDSKNSLYLQMNSLKTEDTAVYYCVRHGNFGNSYVSWFAYWGQGTLVTVSSASTKGPSVFPLAPCSRSTSESTAALGCLVKDYFPEPVTVSWNSGALTSGVHTFPAVLQSSGLYSLSSVVTVPSSSLGTKTYTCNVDHKPSNTKVDKRVESKYGPPCPPCPAPEFEGGPSVFLFPPKPKDTLMISRTPEVTCVVVDVSQEDPEVQFNWYVDGVEVHNAKTKPREEQFNSTYRVVSVLTVLHQDWLNGKEYKCKVSNKGLASSIEKTISKAKGQPREPQVYTLPPCQEEMTKNQVSLWCLVKGFYPSDIAVEWESNGQPENNYKTTPPVLDSDGSFFLYSKLTVDKSRWQEGNVFSCSVMHEALHNHYTQKSLSLSLGK | – | – | 3 | 65 | 2.1 | 2.8 | 65 | 36

— patent publication US20250346685A1 (published 2025)
